Assay: soluble on expression in E. coli; label from the status in PepcDB or PDB records

Sequence	soluble on expression in E. coli
MGSDKIHHHHHHMRGIGLTHAFADISGLAFDRLFMVTETDGTFITARQFPQMVKFIPAPLHDGLHLSAPDGSSAVVRFSDFATQAEPTEVWGNHFTALIAPAAVNQWLSGFFKRDVQLRWLGPQLTRRVKRHDAVPLSFADGYPYLLANEASLRDLQQRCPASVSIEQFRPNLVVTGAAAWDEDSWKVIRIGEVVFDVAKPCSRCIFTTISPERGQKHPAGEPLETLKRFRTALDNGDVDFGQNLIARNSGVIRVGDEVEILTRGPAKAYGAGESDDTPAPEAQQQATVAIEWQGQQFTGNNQQVLLEQLEQQGIRVPYSCRAGICGSCRIRLEEGEVSPLKKNAVAGDGTILACSCVPKTALRLAP	not soluble
MSGDIPLHQLQPNMNSFSVTVIVLDPGIHRRTQTGTIISMKVADASGSINASIMNPEFNETFKPGDILKFRGAYTSIYQGGLTLSVGKSGECKKVGEFMMVFSETPDISMMPLPAGVMDRRNERMQSPAGRYSRPSN	not soluble
MEKLIAIQQNTIKQETVQTMSSREIAELCGKRHGHVMRDIRKLFSELKIDLSNFAGLYKDSTGRTLPCYHLPKREALIVILGYNTVLRAKIIDYWKKLEEQAANPQIDFSSPEIRAAIMMHLKNKIKQTA	soluble
MSLTASVAAAPDPASLAPELAHIAPALKAEILAQALPYIRKFHGKTIVIKYGGNAMTEEKLKHGFARDVILLKLVGMNPVVVHGGGPQIDDALKKVGKTGTFIQGMRVTDEETMEVVEWVLGGEVQQDIVMLINQYGGQAVGLTGKDGGLIRAKKLQMPDREKPGQFIDIGFVGDIETINPAVVRALQDDAFIPVISPIGFSDDGQAYNINADVVAGKMAEILKAEKLVMMTNIPGVLDKQGNLLTDLSAREIDELFADGTISGGMLPKISSALDAAKSGVHSVHIIDGRIEHSLLLEILTEQAFGTMIRSHEGHHHHHH	soluble
MGSDKIHHHHHHMTIPTSYLNHTDAEAARKARATYRDGLVAPTSGIAPGFTQANMIVLPRDWAFDFLLYAQRNPKPCPVLDVSDPGSPTTLLAPGADLRTDLPLYRIWRDGKLAEETADATSAWAERDDLVAFLIGCSFTFETPMVEAGIEIRHMTDKSNVPMYLTNRPCRPAGRLKGNMVVSMRPIPASRVADAATISGRFPAVHGAPVHVGAPEQIGISDLSKPDFGDAVRIEPGEVPVFWACGVTPQAAVMASGVPFAITHAPGHMFITDIPDTAYHA	not soluble
YRDINEIDINMNDPLFTKQWYLINTGQADGTPGLDLNVAEAWELGYTGKGVTIGIMDDGIDYLHPDLASNYNAEASYDFSSNDPYPYPRYTDDWFNSHGTRCAGEVSAAANNNICGVGVAYNSKVAGIRMLDQPFMTDIIEASSISHMPQLIDIYSASWGPTDNGKTVDGPRELTLQAMADGVNKGRGGKGSIYVWASGDGGSYDDCNCDGYASSMWTISINSAINDGRTALYDESCSSTLASTFSNGRKRNPEAGVATTDLYGNCTLRHSGTSAAAPEAAGVFALALEANLGLTWRDMQHLTVLTSKRNQLHDEVHQWRRNGVGLEFNHLFGYGVLDAGAMVKMAKDWKTVPERFHCVGGSVQDPEKIPSTGKLVLTLTTDACEGKENFVRYLEHVQAVITVNATRRGDLNINMTSPMGTKSILLSRRPRDDDSKVGFDKWPFMTTHTWGEDARGTWTLELGFVGSAPQKGVLKEWTLMLHGTQSAPYIDQVVRDYQSKLAMSKKEELEEELDEAVERSLKSILNKN	soluble
MFKRLFMVALLAIAPLVHAVDQSNPYRLMDEAAKKTFTRLKNEQPKIKQNPDYLRTIVREELLPFVQIKYAGALVLGSYYKDATPAQREAYFNAFGKYLEQAYGQALALYHGQTYDVAPDQPLGDANIVAIRVTILDPSGRPPVRLDFQWRKNSQTGNWQAYDMIAEGVSMISTKQNEWASILRQKGVDGLTQQLLSAAKQPITLDK	not soluble
MGSDKIHHHHHHMGKSFYRFRSTNNLLDGYSELEKQTIYFARPEQLNDPMEGYRDIYWRGDLIAWKNLFAHYVFCLERISSLLLISGEDNKIDADHIPVFGSTDDLPTDSYKNLFRKIKARFLENKYVSALILAISKRSTPIRREELAFYYDCMHIPALKLIFDVYIEENLSQEGNRIDDKAFAGISGVVSNDFVGLLEKSITDGEADQVIVNELFKAKSHIKQQSNLIHKHNGTISSSKPNKNLLMIDFPSLYLNRLEEITFPKWYTSCFMSECKNSSVWGHYGNNHTGMCLIFDSENINDRSYIKLNGITGWGSSGPIYGDKAMEFHPIDYKKGFGEIDFFTSIGSLPIPVLNTMWYMDEAGNTSVCANKMNVDEDAWRSNYWSNFIRGLTVKSKDWEYENEYRLILHSSITDLSEKDRRTLTYDFSSLKGIIFGINTKEEDKLKTIKIIEDKCNKHSRSDFKFYQAYYCADENCIKSVEMSLVKFSGNV	not soluble
MGHHHHHHSHAKGKERQWLRHQATGELDDAKIIDGLTGEKAIYKRRGELEPQLGSPQQKPKRLRLVVDVSGSMYRFNRMDGRLERTMEAVCMVMEAFENYEEKFQYDIVGHSGDGYNIGLVPMNKIPKDNKQRLEILKTMHAHSQFCMSGDHTLEGTEHAIKEIVKEEADEYFVIVLSDANLSRYGIHPAKFAQILTRDPQVNAFAIFIGSLGDQATRLQRTLPAGRSFVAMDTKDIPQILQQIFTSTMLSSV	not soluble
MEYGVLSWWDYGNWIVYVGKRPAVSNNFQTGVEDSANFLLTDSEEEAKTIVEKLKVKYVMTDTLMAEGKFSSITSLAGKEIGEYYEVETVKGDTGLRTVATPKQALLQTQVYKLHKLDGTSLGHFRLVHESAVNSTDDGNSKENTVKVFEYVKGATLEHHHHHH	soluble
MIDTTVFQNKTAVYYTLGCKLNFSETSTIGKILREAGVRTARKGEKADICVVNTCSVTEMADKKCRQAIHRLVKQHPGAFVVVTGCYAQLKPGDVAKIKGVDVVLGAEQKGDLLQYLGDLHKHEEGEAFTTTTKDIRSFSPSCSRGDRTRFFLKVQDGCDYFCSYCTIPFARGRSRNGTVASMVEQARQAAAEGGKEIVLTGVNIGDFGKTTGETFFDLVKALDQVEGIERYRISSIEPNLLTDEIIEFVSRSRRFMPHFHIPLQSGCDEVLKLMRRRYDTALFASKVKKIKEVMPDAFIGVDVIVGTRGETEEYFEQAYQFISGLDVTQLHVFSYSERPGTQALKIDYVVSPEEKHQRSQRLLTLSDEKTRAFYTRHIGQTMQVLMEKSKAGTPMHGFTANYIRVEVENDESLDNQMINVRLGEFNEDMTALKGTILMNYEVLEHHHHHH	soluble
MGSDKIHHHHHHMGFWHSMSWKTEGIRVTAPVQWRQYDGMVSVLWEAESQAGASGYYLADDPRIMFFFNDVSSSVRISNQDNDLARNSRPMARAVYVPAGVPLWTGSRKTHSFSHLNLHLHKDRVLRFLAPSVGNSAAQTALRCPVELQNVAAIDALAKLLADEIKSPTKHAVYAESLIGSIIAGLLDIPTEREERAGGRLTQAQINKLVSHIDALGDYRMSVADMAAVVGLSESWFASVFKQTMGITPLQWQLAKRVELTKKLLGESDLPVASIAAQLGFADQAHLTKVFRQIVGETPAAWRRMRQFRQS	not soluble
MILMRTIDWNEESNSVVLVDQTLLPQEYKVIECKTLSSLCEAIQSLRIRGAPALGAAGGFGIALAAYLSGAKDIESMTKDLKVAAKALKSTRPTAVNLAWGVDRVLNAISDAFDFRGIRDIALQEARDIAEEDIETNKLIGKYGAKLLKDGDTVLTHCNAGRLACVDWGTALGVVRSAIADGKEIKVLACETRPLNQGSRITTWELMQDKIPVTLIADSMAGWAMRQGLVNSVLVGADRITQDVVFNKIGTYTHSILAREHEIPFYVAAPVSTFDFEGWEGSIKIEMRNPDELRFAGCQQLAPEDVPVYNPAFDATPMENVTALITERGVFYPPILLDEVLVLEHHHHHH	not soluble
DNFNQQKKKFGGQDIFMTEEQKKYYNAMKKLGSKKPQKPIPRPANKFQGMVFD	soluble
MKALALFSGGLDSLLSMKLIQEMGIEVVALHFNIGFGANRDKLEYLQNATAQIGVELRVLDIQEQFFNEVLFNPVHGYGKYFNPCIDCHANMFRHALRLLEGEGASFIISGEVIGQRPKSQRREALHQVENLTQTKGLILRPLSAKLLPPTLAEERGWVDREKLLDIHGRGRDRQLAMAKSYGWVYFE	not soluble
MMPAHETYDVIVVGAGAGGMTAAAVAAAEGLSVLVIEKTAFVGGTTAWSDGMVWIPANPKMKAAGLSDSVADAVQYLSSTVPEPANAGLRAAFLARGPEAVTYLEAKTEVRFLPVKTCPDYYPERLGATSGGRALEPVAFDGTRLGRAFARLRPPLPEFTLFGGMMVNRLDIPHLRRIGKSLRSTLRAARLVSEYMMQRLRSPRGTTLHLGNALAARLYASLLARQGEILFSADVEDLSMQGDRVSGVVIRHGSRDRAIAARRGVVLATGGFSHDAALRKRFFPPAAGFVSATSPSGTGDGLRLAATAGAALNTEATSPAYWVPASLFRRADGSRGVFPHTVTDRAKPGVIAVNAAGRRFVNEALSYHEFVLAMLRDGHGEPDRPFYLICDRQFLWSYGLGRIKPFTRNFRRYVASGELVEAPDITQLAAKIGIKPSVLTATIAAYNIDAKEGRDPEFGRGTTIYQRHLGDISHKPNPCVAPILRAPYFALRIYPADLGTAIGMKVDAQARVLRGDGTPIAGLYACGNDMGSIMNGNCPGPGITLGPALTFGYIAGRHLAEGGVTRELAKEQMLEHHHHHH	not soluble
MSATVVDAVNAAPLSGSKEMSLEEPKKMTREDWRKKKELEEQRKLGNAPAEVDEEGKDINPHIPQYISSVPWYIDPSKRPTLKHQRPQPEKQKQFSSSGEWYKRGVKENSVITKYRKGACENCGAMTHKKKDCFERPRRVGAKFTGTNIAPDEHVQPQLMFDYDGKRDRWNGYNPEEHMKIVEEYAKVDLAKRTLKAQKLQEELASGKLVEQANSPKHQWGEEEPNSQTEKDHNSEDEDEDKYADDIDMPGQNFDSKRRITVRNLRIREDIAKYLRNLDPNSAYYDPKTRAMRENPYANAGKNPDEVSYAGDNFVRYTGDTISMAQTQLFAWEAYDKGSEVHLQADPTKLELLYKSFKVKKEDFKEQQKESILEKYGGQEHLDAPPAELLLAQTEDYVEYSRHGTVIKGQERAVACSKYEEDVKIHNHTHIWGSYWKEGRWGYKCCHSFFKYSYCTGEAGKEIVNSEECIINEITGEESVKKPQTLMELHQEKLKEEKKKKKKKKKKHRKSSSDSDDEEKKHEKLKKALNAEEARLLHVKETMQIDERKRPYNSMYETREPTEEEMEAYRMKRQRPDDPMASFLGQ	not soluble
MEKLRVGIVFGGKSAEHEVSLQSAKNIVDAIDKSRFDVVLLGIDKQGQWHVSDASNYLLNADDPAHIALRPSATSLAQVPGKHEHQLIDAQNGQPLPTVDVIFPIVHGTLGEDGSLQGMLRVANLPFVGSDVLASAACMDKDVTKRLLRDAGLNIAPFITLTRANRHNISFAEVESKLGLPLFVKPANQGSSVGVSKVTSEEQYAIAVDLAFEFDHKVIVEQGIKGREIECAVLGNDNPQASTCGEIVLTSDFYAYDTKYIDEDGAKVVVPAAIAPEINDKIRAIAVQAYQTLGCAGMARVDVFLTPENEVVINEINTLPGFTNISMYPKLWQASGLGYTDLITRLIELALERHAADNALKTTM	soluble
MMKLKVYADRMSQPSRAVIIFCKVNGIQFDEVLISLAKRQQLSPEFKDINPLGKVPAIVDGRLKLFESHAILIYLSSAFPSVADHWYPNDLSKRAKIHSVLDWHHTNLRRGAAGYVLNSVLGPALGLPLNPKAAAEAEQLLTKSLSTLETFWLKGNAKFLLGSNQPSIADLSLVCELMQLQVLDDKDRLRLLSTHKKVEQWIENTKKATMPHFDETHEILFKVKEGFQKRREMGTLSKPGLQSKI	soluble

Reference: the DeepSol protein solubility set
